The values below come from patent US5792629A, “Isolated DNA encoding novel protease inhibitory polypeptide” (Mochida Pharmaceutical Co., Ltd., priority 1990, dated 1998).

In test [1] the target is T1, Human neutrophil elastase (Homo sapiens, UniProt P08246).
T1 construct: purchased CALBIOCHEM Type V
T1 sequence (P08246 30-267): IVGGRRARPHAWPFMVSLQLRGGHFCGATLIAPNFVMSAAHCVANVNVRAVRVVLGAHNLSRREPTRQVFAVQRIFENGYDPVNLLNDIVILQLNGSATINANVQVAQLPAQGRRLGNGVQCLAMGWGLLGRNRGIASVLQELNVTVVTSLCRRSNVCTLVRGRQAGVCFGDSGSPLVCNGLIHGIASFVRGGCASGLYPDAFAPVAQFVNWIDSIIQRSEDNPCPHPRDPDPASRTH
Nature of the test: Human elastase-inhibiting activity, substrate STANA. Conditions: purified sample, various concentrations; remaining activity vs buffer control (FIG. 15A-C). In kind it is biochemical. As to the method: The purified sample obtained in Example 1-(5) was dissolved in 100 μl of distilled water. Concentration of this solution was determined based on its bovine trypsin-inhibiting activity using the UTI as a standard. The solution was then diluted to various concentration levels with 0.1% BSA/27 mM CaCl2 /133 mM Tris-HCl buffer (pH 7.5) for use in the activity measurement. The aforementioned UTI was also diluted in the same manner. Human elastase-inhibiting activities in the test samples and the positive control were measured in accordance with the method of Ogawa et al. (Ogawa, M. et al., Res. Commun. Chem. Pathol. Pharmacol., vol.55, pp.271-274, 1987) using a synthetic compound STANA (Peptide Institute Inc.) as a substrate.
Human neutrophil elastase (Type V, CALBIOCHEM) was dissolved in 27 mM CaCl2 /[…] Tris-HCl buffer (pH 7.5) to a concentration of 100 μg/ml and the solution was further diluted with 0.1% BSA/27 mM CaCl2 /133 mM Tris-HCl buffer (pH 7.5) to prepare 4 μg/ml of elastase solution. 100 mM solution of STANA was prepared by dissolving it in N-methyl-2-pyrrolidone and the solution was further diluted with 0.1% BSA/27 mM CaCl2 /133 mM Tris-HCl buffer (pH 7.5) to prepare 20 mM of STANA solution.
Next, 50 μl of the test sample or positive control was mixed with 50 μl of the elastase solution and 50 μl of 0.1% BSA/27 mM CaCl2 /133 mM Tris-HCl buffer (pH 7.5). After incubation at 37° C. for 10 minutes, 50 μl of the STANA solution was added to the mixture to start the reaction. The reaction was carried out at 37° C. for 20 minutes and then stopped by adding 50 μl of 50% acetic acid solution to the reaction mixture. Thereafter, absorbance at 405 nm was measured using a spectrophotometer.
In this instance, in order to eliminate absorbance of various solutions in the reaction mixture, a blank solution was prepared by mixing 50 μl of the elastase solution with 50 μl of 50% acetic acid and then with 50 μl of each test sample or the positive control, 50 μl of 0.1% BSA/27 mM CaCl2 /133 mM Tris-HCl buffer (pH 7.5) and with 50 μl of the STANA solution.
In this figure, human elastase remaining activity was expressed by percentage based on the absorbance of a control reaction mixture in which 50 μl of 0.1% BSA/27 mM CaCl2 /133 mM Tris-HCl buffer (pH 7.5) was used instead of the test sample or the positive control.

In another test the test system is chymotrypsin. Conditions: literature report; cited from earlier work.
Another test concerns trypsin. Conditions: literature report; cited from earlier work.
A further test addresses plasmin (Homo sapiens, UniProt P00747). Conditions: literature report; cited from earlier work.
Another test has as its system elastase. Conditions: literature report; cited from earlier work.
The target of the next test is FXa (Homo sapiens, UniProt P00742). Conditions: literature reports, very high concentration; cited from earlier work.
FXa, sequence (P00742 235-488 limits assumed): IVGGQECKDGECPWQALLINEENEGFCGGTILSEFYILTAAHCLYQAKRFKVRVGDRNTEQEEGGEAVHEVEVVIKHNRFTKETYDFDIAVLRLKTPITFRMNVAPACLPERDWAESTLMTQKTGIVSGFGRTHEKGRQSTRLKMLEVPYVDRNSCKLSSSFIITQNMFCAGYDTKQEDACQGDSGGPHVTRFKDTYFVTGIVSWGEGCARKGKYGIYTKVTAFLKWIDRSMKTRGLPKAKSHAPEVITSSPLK
FXa, sequence (P00742 41-179 partner limits assumed): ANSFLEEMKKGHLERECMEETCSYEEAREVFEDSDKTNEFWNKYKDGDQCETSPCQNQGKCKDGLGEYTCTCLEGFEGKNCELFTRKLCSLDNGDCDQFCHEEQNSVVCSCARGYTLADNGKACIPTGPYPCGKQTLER

Entries after “also recorded” stand apart in the source; their conditions may differ.

plasmin, sequence (P00747 581-810 limits assumed, species assumed): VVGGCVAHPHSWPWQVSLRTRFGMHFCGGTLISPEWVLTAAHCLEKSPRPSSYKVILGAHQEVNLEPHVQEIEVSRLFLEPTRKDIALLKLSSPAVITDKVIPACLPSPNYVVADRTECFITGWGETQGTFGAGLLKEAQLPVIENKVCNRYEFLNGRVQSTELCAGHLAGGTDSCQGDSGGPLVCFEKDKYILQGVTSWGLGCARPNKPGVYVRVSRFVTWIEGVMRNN
plasmin, sequence (P00747 97-580 partner limits assumed, species assumed): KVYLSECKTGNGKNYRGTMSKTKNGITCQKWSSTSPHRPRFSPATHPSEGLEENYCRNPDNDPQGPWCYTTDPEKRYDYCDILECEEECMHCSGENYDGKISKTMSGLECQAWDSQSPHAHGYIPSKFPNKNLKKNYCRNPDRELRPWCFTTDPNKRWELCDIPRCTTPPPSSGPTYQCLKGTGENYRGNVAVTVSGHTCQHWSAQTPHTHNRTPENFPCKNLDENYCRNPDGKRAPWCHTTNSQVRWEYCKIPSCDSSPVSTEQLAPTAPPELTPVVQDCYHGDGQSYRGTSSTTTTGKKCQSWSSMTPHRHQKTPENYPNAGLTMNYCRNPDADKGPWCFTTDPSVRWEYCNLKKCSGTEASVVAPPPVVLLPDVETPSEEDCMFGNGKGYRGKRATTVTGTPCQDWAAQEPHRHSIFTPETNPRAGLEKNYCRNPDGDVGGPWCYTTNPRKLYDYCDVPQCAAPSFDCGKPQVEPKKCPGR

As for “CC51: polypeptide defined by the amino acid sequence of formula 1, purified from culture supernatant of E. coli JE5505 (pM560) (CNLPIVRGPCRAFIQLWAFDAVKGKCVLFPYGGCQGNGNKFYSEKECREYC)”, the human elastase-inhibiting activity entry in test [1] is recorded as “activity was found”.

B1: TL66: polypeptide defined by formula 8; known enzyme-digested fragment of urinary trypsin inhibitor, made in E. coli JE5505 (pM551) (protein)
chain: TVAACNLPIVRGPCRAFIQLWAFDAVKGKCVLFPYGGCQGNGNKFYSEKECREYCGVPGDGDEELL
For the molecule B1, in the test with chymotrypsin, the inhibition of chymotrypsin entry is “activities to inhibit”. The inhibition of trypsin result in the test on trypsin is reported as “activities to inhibit”. In addition, in test [1], the human elastase-inhibiting activity result is reported as “activity was found”. The inhibition of plasmin result in the test with plasmin is reported as “activities to inhibit”.

B2: UTI: urinary trypsin inhibitor purified from human urine (Mochida Pharmaceutical), used as positive control (protein)
chain: AVLPQEEEGSGGGQLVTEVTKKEDSCQLGYSAGPCMGMTSRYFYNGTSMACETFQYGGCMGNGNNFVTEKECLQTCRTVAACNLPIVRGPCRAFIQLWAFDAVKGKCVLFPYGGCQGNGNKFYSEKECREYCGVPGDGDEELLRFSN
modifications: glycoprotein (sugar moieties, as the filing says in general of UTI)
Consider B2, for which the inhibition of chymotrypsin result with chymotrypsin is listed as “shows the inhibition activities”. Also, the inhibition of trypsin result in the test with trypsin is “shows the inhibition activities”. In the test on elastase, the inhibition of elastase entry was “shows the inhibition activities”. The “inhibition of FXa activity” value in the test with FXa is listed as “slightly inhibited; also recorded: inhibited the FXa activity”. For the same molecule, the human elastase-inhibiting activity result in test [1] is “activity was found”. Moreover, the inhibition of plasmin entry in the test with plasmin was “shows the inhibition activities”.

B3: TN70: polypeptide defined by the amino acid sequence of formula 3, purified from culture supernatant of E. coli JE5505 (pM552) (protein)
chain: TVAACNLPIVRGPCRAFIQLWAFDAVKGKCVLFPYGGCQGNGNKFYSEKECREYCGVPGDGDEELLRFSN
As to B3, in test [1], the human elastase-inhibiting activity result is listed as “activity was found”.
